According to patent US10500249B2, “Compositions and methods for preventing or treating diseases, conditions, or processes characterized by aberrant fibroblast proliferation and extracellular matrix deposition” (MOERAE MATRIX, INC., priority 2014, dated 2019):

Tests used:
Test in all cases: Kinase Profiling Assay
Assay type in all cases: biochemical
Settings in all cases: 100 μM
[1] = target: T1, IR (h) (Homo sapiens, UniProt P06213)
T1 construct: purchased Millipore
In short: (§1)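 Specificity of MK2 inhibitory peptides is assessed against a panel of 266 human kinases. Kinase transfers a radiolabeled phosphate from ATP onto a positively charged substrate, which is trapped on a negatively charged filter and quantified by scintillation counting against full-activity control; duplicate determinations.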

[2] = target: TLK2 (h) (Homo sapiens, UniProt Q86UE8)
Chain of TLK2 (h) (Q86UE8 whole entry): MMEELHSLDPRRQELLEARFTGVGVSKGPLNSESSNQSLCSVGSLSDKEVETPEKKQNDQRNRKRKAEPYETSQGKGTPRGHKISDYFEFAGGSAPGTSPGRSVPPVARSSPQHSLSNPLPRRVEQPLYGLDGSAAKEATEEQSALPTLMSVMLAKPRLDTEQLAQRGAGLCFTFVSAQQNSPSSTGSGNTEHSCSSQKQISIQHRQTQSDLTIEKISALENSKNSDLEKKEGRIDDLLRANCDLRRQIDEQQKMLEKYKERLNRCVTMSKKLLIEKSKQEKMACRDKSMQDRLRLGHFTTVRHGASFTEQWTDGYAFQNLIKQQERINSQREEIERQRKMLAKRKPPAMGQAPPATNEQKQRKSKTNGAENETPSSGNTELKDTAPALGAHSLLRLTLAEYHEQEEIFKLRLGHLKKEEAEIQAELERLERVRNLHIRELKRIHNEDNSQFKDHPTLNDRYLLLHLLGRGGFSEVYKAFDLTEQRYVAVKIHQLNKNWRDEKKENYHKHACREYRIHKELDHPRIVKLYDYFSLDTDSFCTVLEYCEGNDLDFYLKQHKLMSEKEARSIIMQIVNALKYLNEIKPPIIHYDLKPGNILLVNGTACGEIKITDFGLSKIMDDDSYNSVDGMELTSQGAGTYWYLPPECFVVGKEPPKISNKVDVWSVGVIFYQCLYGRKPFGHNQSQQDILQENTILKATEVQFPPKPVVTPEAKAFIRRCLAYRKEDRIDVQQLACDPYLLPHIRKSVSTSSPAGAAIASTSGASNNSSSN
In short: as §1

[3] = target: Met(D1246H) (h) (Homo sapiens, UniProt P08581, D1228H)
In short: as §1

[4] = target: T2, Pim-1 (h) (Homo sapiens, UniProt P11309)
T2 construct: purchased Millipore
T2 sequence (P11309 whole entry): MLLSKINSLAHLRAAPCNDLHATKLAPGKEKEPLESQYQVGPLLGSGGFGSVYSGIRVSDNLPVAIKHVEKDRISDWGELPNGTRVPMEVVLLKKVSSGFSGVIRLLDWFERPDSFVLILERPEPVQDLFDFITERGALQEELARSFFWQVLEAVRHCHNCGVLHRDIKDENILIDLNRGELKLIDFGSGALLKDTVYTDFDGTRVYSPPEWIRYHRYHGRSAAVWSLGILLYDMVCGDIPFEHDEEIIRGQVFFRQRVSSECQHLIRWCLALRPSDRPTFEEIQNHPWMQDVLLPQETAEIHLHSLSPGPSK
In short: as §1

[5] = target: T3, DMPK (h) (Homo sapiens, UniProt Q09013)
T3 construct: purchased Millipore
T3 sequence (Q09013 1-629): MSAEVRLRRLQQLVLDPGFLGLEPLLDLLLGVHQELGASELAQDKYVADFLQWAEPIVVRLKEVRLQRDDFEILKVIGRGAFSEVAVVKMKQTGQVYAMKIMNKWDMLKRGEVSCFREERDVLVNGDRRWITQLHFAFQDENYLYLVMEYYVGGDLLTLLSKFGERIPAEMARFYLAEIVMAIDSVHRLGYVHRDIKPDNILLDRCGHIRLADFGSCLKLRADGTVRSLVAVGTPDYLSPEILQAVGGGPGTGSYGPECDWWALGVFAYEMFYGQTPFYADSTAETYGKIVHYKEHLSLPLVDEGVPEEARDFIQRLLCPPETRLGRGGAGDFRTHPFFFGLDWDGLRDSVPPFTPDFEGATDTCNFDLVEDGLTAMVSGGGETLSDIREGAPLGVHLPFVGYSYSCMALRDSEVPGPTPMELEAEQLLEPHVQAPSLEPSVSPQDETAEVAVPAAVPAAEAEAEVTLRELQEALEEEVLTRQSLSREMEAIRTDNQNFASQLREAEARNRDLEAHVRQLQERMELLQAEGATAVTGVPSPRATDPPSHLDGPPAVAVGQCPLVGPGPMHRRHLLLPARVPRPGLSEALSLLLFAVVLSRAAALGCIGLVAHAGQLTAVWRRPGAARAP
In short: as §1

[6] = target: T4, EphA1 (h) (Homo sapiens, UniProt P21709)
T4 construct: purchased Millipore
T4 sequence (P21709 26-976): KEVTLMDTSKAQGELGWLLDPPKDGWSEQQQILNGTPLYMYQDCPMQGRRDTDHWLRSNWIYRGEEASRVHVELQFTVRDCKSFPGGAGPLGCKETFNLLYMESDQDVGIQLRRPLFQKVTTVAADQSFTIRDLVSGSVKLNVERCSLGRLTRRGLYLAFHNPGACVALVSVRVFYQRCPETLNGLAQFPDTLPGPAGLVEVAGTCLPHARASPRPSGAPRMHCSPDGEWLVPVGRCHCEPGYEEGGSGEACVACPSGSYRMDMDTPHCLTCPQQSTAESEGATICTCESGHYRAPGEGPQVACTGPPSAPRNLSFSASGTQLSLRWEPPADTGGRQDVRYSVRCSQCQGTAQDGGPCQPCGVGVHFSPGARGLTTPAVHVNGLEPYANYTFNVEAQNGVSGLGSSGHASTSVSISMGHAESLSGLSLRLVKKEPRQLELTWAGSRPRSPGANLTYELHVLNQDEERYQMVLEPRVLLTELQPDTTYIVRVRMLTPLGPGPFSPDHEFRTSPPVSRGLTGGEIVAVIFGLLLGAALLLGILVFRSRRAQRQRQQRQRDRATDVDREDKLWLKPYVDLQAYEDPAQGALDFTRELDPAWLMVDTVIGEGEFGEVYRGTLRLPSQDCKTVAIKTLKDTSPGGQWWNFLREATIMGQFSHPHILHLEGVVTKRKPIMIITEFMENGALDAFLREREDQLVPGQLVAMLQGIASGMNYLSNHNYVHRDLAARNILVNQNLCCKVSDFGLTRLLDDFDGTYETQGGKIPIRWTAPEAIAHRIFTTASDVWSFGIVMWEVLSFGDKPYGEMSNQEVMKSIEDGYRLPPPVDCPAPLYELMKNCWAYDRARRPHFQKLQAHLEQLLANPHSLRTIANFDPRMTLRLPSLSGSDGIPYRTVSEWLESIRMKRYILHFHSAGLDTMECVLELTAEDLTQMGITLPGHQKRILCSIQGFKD
In short: as §1

[7] = target: T5, IR (h), activated (Homo sapiens, UniProt P06213)
T5 construct: purchased Millipore
In short: as §1

[8] = target: T6, CDK2/cyclinA (h) (Homo sapiens, UniProt P24941)
T6 construct: purchased Millipore
In short: as §1

## YARAAARQARAKALNRQLGVA (Mammalian) [MMI-0200]
[1]
  % activity: 90%
[2]
  % activity: 129%
[3]
  % activity: 139%
[4]
  % activity: 18%
[5]
  % activity: 66%

## HRRIKAWLKKIKALARQLGVAA (Mammalian) [MMI-0500]
[1]
  % activity: 95%
[2]
  % activity: 133%
[6]
  % activity: 40%
[3]
  % activity: 150%
[4]
  % activity: 0%
[7]
  % activity: 90%
[8]
  % activity: 87%
[5]
  % activity: 12%

## FAKLAARLYRKALARQLGVAA [MMI-0300]
[1]
  % activity: 96%
[6]
  % activity: 73%
[3]
  % activity: 125%
[4]
  % activity: 8%
[7]
  % activity: 79%
[8]
  % activity: 86%
[5]
  % activity: 59%

## KAFAKLAARLYRKALARQLGVAA [MMI-0400]
[1]
  % activity: 85%
[2]
  % activity: 151%
[6]
  % activity: 61%
[3]
  % activity: 68%
[4]
  % activity: 7%
[7]
  % activity: 59%
[8]
  % activity: 92%
[5]
  % activity: 54%
